Experimental data as given in patent US20240287501A1 (VIB VZW, published 2024).

Tests used:
[1] = target: T1, GFP-tagged ALD6 (Saccharomyces cerevisiae, UniProt P54115 2-500); assay: co-immunoprecipitation, Nb coupled to NHS-agarose beads, lysate of the yeast strain expressing the GFP-tagged target, Western blot anti-GFP
T1 construct: Yeast GFP Fusion Collection strain; also called Yeast GFP fusion collection GFP(+)15, F1; not shown: GFP tag
T1 sequence (looked up): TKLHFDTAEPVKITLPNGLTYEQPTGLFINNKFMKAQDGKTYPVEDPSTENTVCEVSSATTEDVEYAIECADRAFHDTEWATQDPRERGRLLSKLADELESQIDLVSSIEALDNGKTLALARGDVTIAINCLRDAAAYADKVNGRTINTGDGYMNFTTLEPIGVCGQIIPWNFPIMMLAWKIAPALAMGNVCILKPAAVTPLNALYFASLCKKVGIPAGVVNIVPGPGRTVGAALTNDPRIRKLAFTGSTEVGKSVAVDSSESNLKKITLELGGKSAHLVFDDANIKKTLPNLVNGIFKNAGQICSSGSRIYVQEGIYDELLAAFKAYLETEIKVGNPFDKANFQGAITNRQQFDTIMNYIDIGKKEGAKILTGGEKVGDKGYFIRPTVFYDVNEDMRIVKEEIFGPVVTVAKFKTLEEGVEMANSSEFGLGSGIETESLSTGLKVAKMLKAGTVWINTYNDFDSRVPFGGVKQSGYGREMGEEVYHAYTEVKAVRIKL
Procedure: One SIS1-specific Nanobody (44=Nb clone CA17444 corresponding to SEQ ID NO: 9), three ALD6-specific Nanobodies (53=CA17453-SEQ ID NO: 10, 54=CA17454-SEQ ID NO: 11, 60=CA17460-SEQ ID NO: 12), two BMH1-specific Nanobodies (58=CA17458-SEQ ID NO: 13, 59=CA17459-SEQ ID NO: 14) were characterized by co-immunoprecipitation assays. Each target-specific Nanobodies was covalently linked to NHS-agarose beads. The beads that were functionalized with these target-specific Nanobodies were incubated for an hour at 4° C. on a rotating device with either an EBY100 lysate or the lysate of the engineered Yeast strain expressing the target (Yeast GFP fusion collection reference for SIS1: GFP(+)22, E5, for ALD6: GFP(+)15, F1, for BMH1: GFP(+)27, D5) as a GFP-tagged protein. After washing, these beads were resuspended in SDS-PAGE loading dye and analyzed on SDS-PAGE (FIG. 8A). Separated proteins were transferred to a PVDF membrane and the Western blot (FIG. 8B) was developed with GFP-specific antibody to confirm the presence of GFP-tagged targets.

[2] = target: T2, ALD6 (native, from EBY100 lysate) (Saccharomyces cerevisiae, UniProt P54115 2-500); assay: co-IP, Nb on NHS-agarose beads, EBY100 yeast lysate, SDS-PAGE
T2 construct: mature; Endogenous untagged protein; also called YPL061W
T2 sequence (looked up): T1 sequence (looked up)

[3] = target: T3, GFP-tagged PGI1 (Saccharomyces cerevisiae, UniProt P12709 2-554); assay: co-immunoprecipitation, Nb coupled to NHS-agarose beads, lysate of the yeast strain expressing the GFP-tagged target, SDS-PAGE
T3 construct: Yeast GFP Fusion Collection strain; 88 kDa band; also called GFP-PGI1; Yeast GFP fusion collection GFP(+)12, H11; not shown: GFP tag
T3 sequence (P12709 2-554): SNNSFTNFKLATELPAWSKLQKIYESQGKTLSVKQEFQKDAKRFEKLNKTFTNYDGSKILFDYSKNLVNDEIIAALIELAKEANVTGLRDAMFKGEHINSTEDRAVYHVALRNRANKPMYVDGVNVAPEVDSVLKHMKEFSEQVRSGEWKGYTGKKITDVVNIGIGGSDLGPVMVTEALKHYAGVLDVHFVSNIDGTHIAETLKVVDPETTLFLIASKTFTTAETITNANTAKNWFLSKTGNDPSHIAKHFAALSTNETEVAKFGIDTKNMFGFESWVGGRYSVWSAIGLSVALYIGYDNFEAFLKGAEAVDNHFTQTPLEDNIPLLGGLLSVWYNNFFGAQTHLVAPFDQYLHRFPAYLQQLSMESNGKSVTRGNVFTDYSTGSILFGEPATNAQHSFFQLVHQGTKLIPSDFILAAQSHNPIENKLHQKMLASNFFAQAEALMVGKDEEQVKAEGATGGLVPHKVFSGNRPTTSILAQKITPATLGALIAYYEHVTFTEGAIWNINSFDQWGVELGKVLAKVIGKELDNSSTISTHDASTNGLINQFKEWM
Procedure: (§1) Three PGI1-specific Nanobodies (55=Nb clone CA17455 corresponding to SEQ ID NO: 15, 56=CA17456-SEQ ID NO: 16, 57=CA17457-SEQ ID NO: 17) were characterized by co-immunoprecipitation assays. Each PGI1-specific Nanobodies was covalently linked to NHS-agarose beads. The beads that were functionalized with these PGI1-specific Nanobodies were incubated for an hour at 4° C. on a rotating device with either an EBY100 lysate or the lysate of the engineered Yeast strain expressing PGI1 (Yeast GFP fusion collection reference: GFP(+)12, H11) as a GFP-tagged protein. After washing, these beads were resuspended in SDS-PAGE loading dye and analyzed on SDS-PAGE (FIG. 7A). Separated proteins were transferred to a PVDF membrane and the Western blot (FIG. 7B) was developed with GFP-specific antibody to confirm the presence of GFP-tagged PGI1.

[4] = target: T4, PGI1 (native, un-tagged, from EBY100 lysate) (Saccharomyces cerevisiae, UniProt P12709 2-554); assay: co-immunoprecipitation, Nb coupled to NHS-agarose beads, EBY100 yeast lysate (native target), SDS-PAGE
T4 construct: mature; Endogenous untagged protein, 61 kDa band; also called YBR196C; endogenous PGI1
T4 sequence (P12709 2-554): as above
Procedure: as §1

[5] = target: T5, GFP-tagged SSA1 (Saccharomyces cerevisiae, UniProt P10591 2-642); assay: co-immunoprecipitation, Nb coupled to NHS-agarose beads, lysate of the yeast strain expressing the GFP-tagged target, SDS-PAGE
T5 construct: Yeast GFP Fusion Collection strain; also called Yeast GFP fusion collection GFP(+)10, E4; not shown: GFP tag
T5 sequence (P10591 2-642): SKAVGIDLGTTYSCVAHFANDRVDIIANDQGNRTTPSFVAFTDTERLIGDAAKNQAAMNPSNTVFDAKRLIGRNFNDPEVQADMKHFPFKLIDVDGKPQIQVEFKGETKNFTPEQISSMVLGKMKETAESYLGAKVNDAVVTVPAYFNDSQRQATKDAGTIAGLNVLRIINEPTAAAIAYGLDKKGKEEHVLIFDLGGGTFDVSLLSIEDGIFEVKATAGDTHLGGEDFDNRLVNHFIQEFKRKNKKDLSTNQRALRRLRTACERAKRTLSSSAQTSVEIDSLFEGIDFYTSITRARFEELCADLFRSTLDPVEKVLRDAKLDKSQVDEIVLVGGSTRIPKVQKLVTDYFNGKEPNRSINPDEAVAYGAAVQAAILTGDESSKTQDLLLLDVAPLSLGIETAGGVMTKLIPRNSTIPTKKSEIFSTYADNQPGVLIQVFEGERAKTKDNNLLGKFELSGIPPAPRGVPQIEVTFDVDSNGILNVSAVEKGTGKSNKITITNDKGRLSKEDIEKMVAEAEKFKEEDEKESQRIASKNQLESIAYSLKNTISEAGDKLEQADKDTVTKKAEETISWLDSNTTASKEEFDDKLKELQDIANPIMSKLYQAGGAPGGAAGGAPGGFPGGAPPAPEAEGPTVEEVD
Procedure: (§2) Six SSA1-specific Nanobodies (60=Nb clone CA17560 corresponding to SEQ ID NO: 19, 61=CA17561-SEQ ID NO: 20, 62=CA17562-SEQ ID NO: 21, 63=CA17563-SEQ ID NO: 22, 64=CA17564-SEQ ID NO: 23, 65=CA17565-SEQ ID NO: 24) were characterized by co-immunoprecipitation assays. Each SSA1-specific Nanobodies was covalently linked to NHS-agarose beads. The beads that were functionalized with these SSA1-specific Nanobodies were incubated for an hour at 4° C. on a rotating device with either an EBY100 lysate or the lysate of the engineered Yeast strain expressing SSA1 (Yeast GFP fusion collection reference: GFP(+)10, E4) as a GFP-tagged protein. After washing, these beads were resuspended in SDS-PAGE loading dye and analyzed on SDS-PAGE (FIG. 6A). Separated proteins were transferred to a PVDF membrane and the Western blot (FIG. 6B) was developed with GFP-specific antibody to confirm the presence of GFP-tagged SSA1.

[6] = target: T6, SSA1 (native, from EBY100 lysate) (Saccharomyces cerevisiae, UniProt P10591 2-642); assay: co-IP, Nb on NHS-agarose beads, EBY100 yeast lysate, SDS-PAGE
T6 construct: mature; Endogenous untagged protein; also called YAL005C
T6 sequence (P10591 2-642): as above

[7] = target: T5, GFP-tagged SSA1; assay: co-immunoprecipitation, Nb coupled to NHS-agarose beads, lysate of the yeast strain expressing the GFP-tagged target, Western blot anti-GFP
Procedure: as §2

[8] = target: T7, PDC1 (native, from EBY100 lysate) (Saccharomyces cerevisiae, UniProt P06169 2-563); assay: co-immunoprecipitation, Nb coupled to NHS-agarose beads, EBY100 yeast lysate (native target), SDS-PAGE
T7 construct: mature; Endogenous untagged protein; also called YLR044C
T7 sequence (looked up): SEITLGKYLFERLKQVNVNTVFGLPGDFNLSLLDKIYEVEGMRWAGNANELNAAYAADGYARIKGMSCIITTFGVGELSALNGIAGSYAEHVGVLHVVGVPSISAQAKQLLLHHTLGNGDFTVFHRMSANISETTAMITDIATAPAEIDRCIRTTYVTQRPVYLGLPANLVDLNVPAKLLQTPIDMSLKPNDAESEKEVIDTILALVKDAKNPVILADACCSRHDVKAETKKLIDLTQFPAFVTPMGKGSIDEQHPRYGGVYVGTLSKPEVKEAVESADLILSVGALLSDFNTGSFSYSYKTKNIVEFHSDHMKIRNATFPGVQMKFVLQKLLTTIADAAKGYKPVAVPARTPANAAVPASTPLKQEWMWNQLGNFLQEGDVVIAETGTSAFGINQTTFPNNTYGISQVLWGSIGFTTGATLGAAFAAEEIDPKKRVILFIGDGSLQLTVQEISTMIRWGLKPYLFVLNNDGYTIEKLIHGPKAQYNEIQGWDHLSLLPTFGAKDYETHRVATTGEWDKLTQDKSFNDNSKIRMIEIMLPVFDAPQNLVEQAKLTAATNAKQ
Procedure: (§3) Two PDC1-specific Nanobodies (51=Nb clone CA17451 corresponding to SEQ ID NO: 7, 52=CA17452-SEQ ID NO: 8) were characterized by co-immunoprecipitation assays. Each PDC1-specific Nanobodies was covalently linked to NHS-agarose beads. The beads that were functionalized with these PDC1-specific Nanobodies were incubated for an hour at 4° C. on a rotating device with either an EBY100 lysate or the lysate of the engineered Yeast strain expressing PDC1 (Yeast GFP fusion collection reference: GFP(+)12, F8) as a GFP-tagged protein. After washing, these beads were resuspended in SDS-PAGE loading dye and analyzed on SDS-PAGE (FIG. 5A). Separated proteins were transferred to a PVDF membrane and the Western blot (FIG. 5B) was developed with GFP-specific antibody to confirm the presence of GFP-tagged PDC1.

[9] = target: T8, GFP-tagged PDC1 (Saccharomyces cerevisiae, UniProt P06169 2-563); assay: co-immunoprecipitation, Nb coupled to NHS-agarose beads, lysate of the yeast strain expressing the GFP-tagged target, SDS-PAGE
T8 construct: Yeast GFP Fusion Collection strain; also called Yeast GFP fusion collection GFP(+)12, F8; not shown: GFP tag
T8 sequence (looked up): T7 sequence (looked up)
Procedure: as §3

B1: CA17454 (VHH)
VHH: QVQLVESGGGLVQPGGSLRLSCAASGSIFSRNYIAWYRQAPGKQRELVARKTQSGATVYADSVKGRFTISTNNAKNTMYLQMNILKPEDTAVYYCNAGGLIGSWGQGTQVTVSS
notes: C-terminal 6xHis-EPEA tag is part of the entry
- binding result [1]: binds
- binding result [2]: binds

B2: CA17456 (VHH)
VHH: QVQLVESGGGLVQPGGSLRLSCAASRSIVTINVMGWYRQAPGKEREFVAGATSGGSTDYADSVKGRFTISRDNAKNTVYLQMNSLKPEDTAVYYCNLRGTGYNYGENYWGKGTQVTVSS
notes: as for B1
- binding result [3]: binds
- binding result [4]: binds

B3: CA17561 (VHH)
VHH: QVQLVESGGGLVQAGGSLRLSCAASTRTFSNYVMAWFRQAPGKEREFVGAINWSGGTEYYADSVKGRFTISRDNAKNTVYLQMNDLNPEDTANYYCAARRGTIARTALVKYLEYDYWGQGTQVTVSS
notes: as for B1
- binding result [5]: binds
- binding result [6]: binds

B4: CA17564 (VHH)
VHH: QVQLVESGGGLVQPGDSLRLSCVVSVQHFGNYIVGWFRQPPGKEREFVSAISRGLRTYYADSVKGRVTISRDNAKNSVYLQMNSLKPEDTAVYYCAGSRLLEGAPRDSRGYNNWGQGTQVTVSS
notes: as for B1
- binding result [7]: binds
- binding result [6]: binds

B5: CA17451 (VHH)
VHH: QVQLVESGGGLVQPGGSLRLSCAASGISFSINTLGWYRQAPGKQRELVATVTTGGSTYYVDSAKGRFTVSRDNAKNTVYLQMNSLNSEDTAVYYCKLERYGVWGQGTQVTVSS
notes: as for B1
- binding result [8]: binds
- binding result [9]: binds

B6: CA17565 (VHH)
VHH: QVQLVESGGGRVQPGGSLRLSCVASGFTFTSYGMSWYRQTPGKEREFVAAISSESTWADYGDSVKGRFTISRDNAKKMVYLQMNSLKPDDTAVYYCNRDQVPWPTWGPGTQVTVSS
notes: as for B1
- binding result [7]: binds
- binding result [6]: binds

B7: CA17457 (VHH)
VHH: QVQLVESGGGLVQTGGSLRLSCAASGGHFSNLAMGWFRQAPGKEREFVAAIGRSQFNLLYSNFVKGRFTISRDNAENTVYLQLNSLNSEDTAIYYCASSGGVSDWRGIMTTGARLARNYDYWGQGTQVTVSS
notes: as for B1
- binding result [3]: binds
- binding result [4]: binds

B8: CA17455 (VHH)
VHH: QVQLVESGGGLVQPGGSLRLSCAASGITFPSYRLSWYRQAPGKERELVAAITSDGGTTNYADFVKGRFTISRDNTKNTVYLQMNSLKPEDTAVYYCKAQYFSTPLTYWGQGTQVTVSS
notes: C-terminal 6xHis-EPEA tag is part of the entry; also called PGI1-specific trapper/stripper
- binding result [3]: binds
- binding result [4]: binds

B9: CA17452 (VHH)
VHH: QVQLVESGGGLVQAGASLTLSCAASGRTFNTYSMHWFRQAPGKEREFVAATNWGGNSKFYADSVRGRFTISRDNTKNMVYLQMNSLKPEDTAVYYCAAHRTVVGKTPDYWGQGTQVTVSS
notes: as for B1
- binding result [8]: binds
- binding result [9]: binds

B10: CA17460 (VHH)
VHH: QVQLVESGGGLVQPGDSLRLSCAASGFTVSTNTMTWVRQAPGKGLEWVSTKYSTGGTTYANSVKGRFTISRDNAKNTLYLQMNNLKPEDTAVYYCGGADYRGQGTQVTVSS
notes: as for B1
- binding result [1]: binds
- binding result [2]: binds

B11: CA17453 (VHH)
VHH: QVQLVESGGGVVQPGGSLRLSCAASGRIFIRSAWYRQAPGKQRALVASIFSGGTTNYADSVKGRFTISRDNAKNTVILEMNNLKPEDTAVYYCNVRVRSGTDYWGQGTQVTVSS
notes: as for B1
- binding result [1]: binds
- binding result [2]: binds
